{"source": "paper PMC8685691", "about": "“A serum-stable RNA aptamer specific for SARS-CoV-2 neutralizes viral entry”", "binders": {"B1": {"name": "RBD-PB6-Tinv (structured_RNA)", "RNA": "GGCGACAUUUGUAAUAGGACGACCGAUACUUCCGUGUCCUCAGAGGUUGCCA", "modifications": "2'-fluoro pyrimidines"}, "B2": {"name": "RBD-PB6-Ta (structured_RNA)", "RNA": "GGCGACAUUUGUAAUUCCUGGACCGAUACUUCCGUCAGGACAGAGGUUGCCA", "modifications": "2'-fluoro pyrimidines"}, "B3": {"name": "RBD-PB6 (structured_RNA)", "RNA": "GGGGCCACCAACGACAUUUGUAAUUCCUGGACCGAUACUUCCGUCAGGACAGAGGUUGAUAUAAAUAGUGCCCAUGGAUCC", "modifications": "2'-fluoro pyrimidines"}}, "key": {"[1]": {"target": "SARS-CoV-2 spike RBD, C-tagged (SARS-CoV-2 (WT), UniProt P0DTC2 319-532)", "test": "BLI competition"}, "[2]": {"target": "T1, SARS-CoV-2 spike RBD, WT, His-tagged (SARS-CoV-2 (WT), UniProt P0DTC2 319-532)", "test": "BLI competition"}, "[3]": {"target": "T1, SARS-CoV-2 spike RBD, WT, His-tagged", "test": "FIDA"}, "[4]": {"target": "T1, SARS-CoV-2 spike RBD, WT, His-tagged", "test": "BLI"}}}
{"binder": "GGUCCUGGACCGAUACUUCCGUCAGGACCA (structured_RNA, 2'-fluoro pyrimidines)", "note": "[RBD-PB6-Tc]", "values": [{"measurement": "binding result", "setting": "[1]", "result": "no binding"}]}
{"binder": "B1", "values": [{"measurement": "binding result", "setting": "[1]", "result": "no binding"}]}
{"binder": "GGUUUGUAAUUCCUGGACCGAUACUUCCGUCAGGACAGACCA (structured_RNA, 2'-fluoro pyrimidines)", "note": "[RBD-PB6-Tb]", "values": [{"measurement": "binding result", "setting": "[1]", "result": "no binding"}]}
{"binder": "B2", "values": [{"measurement": "IC50", "setting": "[2]", "result": 200, "unit": "nM"}]}
{"binder": "GGCGACAUUUGUAAUUCCUGGAUCAGGACAGAGGUUGCCA (structured_RNA, 2'-fluoro pyrimidines)", "note": "[RBD-PB6-Td]", "values": [{"measurement": "binding result", "setting": "[1]", "result": "no binding"}]}
{"binder": "B3", "values": [{"measurement": "Kd", "setting": "[3]", "result": 129, "unit": "nM"}, {"measurement": "Kd", "setting": "[4]", "result": "~18", "unit": "nM"}, {"measurement": "IC50", "setting": "[2]", "result": "~250", "unit": "nM"}]}
